These results are taken from patent US20120141501A1 (Chugai, published 2012).

Assay [1] concerns the target T1, mature TGFα (R&D Systems, 239-A) (human, UniProt P01135 40-89). Description: ELISA on immobilized mature TGFα, COS-7 supernatant. On the technique in general: In an ELISA, binding on a coated surface is turned into a signal by an enzyme label.
Assay [2] has as its target T1, mature TGFα (R&D Systems, 239-A). The assay can be described thus: ELISA on immobilized TGFα (R&D Systems, 239-A).
The target is the same in assay [3]. Description: ELISA on immobilized mature TGFα (R&D Systems, 239-A).

B1: #2-20 mouse chimeric IgG2a recombinant antibody (#2-20 VH/VL with mouse IgG2a constant region) (antibody)
heavy: DVQLQESGPGLVKPSQSLSLTCTVTGYSITSDYAWNWIRLFPGNKLEWMGFINYSGNTSYNPSLKSRISITRDTSKNQFFLKLNSLTTDDTATYYCARGGLSRFPYWGQGTLVTVSAAKTTAPSVYPLAPVCGGTTGSSVTLGCLVKGYFPEPVTLTWNSGSLSSGVHTFPALLQSGLYTLSSSVTVTSNTWPSQTITCNVAHPASSTKVDKKIEPRVPITQNPCPPLKECPPCAAPDLLGGPSVFIFPPKIKDVLMISLSPMVTCVVVDVSEDDPDVQISWFVNNVEVHTAQTQTHREDYNSTLRVVSALPIQHQDWMSGKEFKCKVNNRALPSPIEKTISKPRGPVRAPQVYVLPPPAEEMTKKEFSLTCMITGFLPAEIAVDWTSNGRTEQNYKNTATVLDSDGSYFMYSKLRVQKSTWERGSLFACSVVHEGLHNHLTTKTISRSLGK
light: DIQMTQTTSSLSASLGDRVTISCRSSQDIRNYLNWYQQKPDGTVKLLIYYTSRSHSGVPSRFSGSGSGTDYSLTISNLEQEDIATYFCQQGNMFPFTFGGGTKLEIKRADAAPTVSIFPPSSEQLTSGGASVVCFLNNFYPKDINVKWKIDGSERQNGVLNSWTDQDSKDSTYSMSSTLTLTKDEYERHNSYTCEATHKTSTSPIVKSFNRNEC
notes: Transiently expressed in COS-7 and tested as culture supernatant; also called recombinant mouse chimeric IgG2a antibody; mouse IgG2a antibody
On to B1, for which the binding result in assay [1] is recorded as “binds”.

B2: #2-20 recombinant human chimeric antibody (#2-20 VH/VL with human IgG1 constant region) (antibody)
heavy: not shown
light: DIQMTQTTSSLSASLGDRVTISCRSSQDIRNYLNWYQQKPDGTVKLLIYYTSRSHSGVPSRFSGSGSGTDYSLTISNLEQEDIATYFCQQGNMFPFTFGGGTKLEIKRTVAAPSVFIFPPSDEQLKSGTASVVCLLNNFYPREAKVQWKVDNALQSGNSQESVTEQDSKDSTYSLSSTLTLSKADYEKHKVYACEVTHQGLSSPVTKSFNRGEC
notes: Transiently expressed in COS-7 and tested as culture supernatant
Consider B2, for which the binding result in assay [1] is recorded as “binds”.

B3: EP19 monoclonal antibody (mouse hybridoma anti-EREG antibody) (antibody, V domains shown)
VH: EVQLQQSGPELEKPGASVKISCKASGYSFTGYNMNWVKQSNGKSLEWIGNIDPYYGAASYNQKFKGKATLTVDKSSSTAYMQLKSLTSEDSAVYYCARSQLPYWYFDVWGAGTTVTVSS
VL: DIVMTQSPSSLTVTAGEKVTMSCKSSQSLLNSGNQKNYLTWYQQKPGQPPKLLIYWASTRESGVPDRFTGSGSGTDFTLTISSVQAEDLAVYYCQNDYSYPYTFGGGTKLEIK
notes: Hybridoma antibody from WO 2008/047723; The variable region entries may include leader residues; also called EP19 antibody
For the molecule B3, the binding result in assay [2] is on record as “binds”.

B4: mouse hybridoma anti-TGFα antibody #2-20 (antibody, V domains shown)
VH: DVQLQESGPGLVKPSQSLSLTCTVTGYSITSDYAWNWIRLFPGNKLEWMGFINYSGNTSYNPSLKSRISITRDTSKNQFFLKLNSLTTDDTATYYCARGGLSRFPYWGQGTLVTVSA
VL: DIQMTQTTSSLSASLGDRVTISCRSSQDIRNYLNWYQQKPDGTVKLLIYYTSRSHSGVPSRFSGSGSGTDYSLTISNLEQEDIATYFCQQGNMFPFTFGGGTKLEIK
notes: Mouse IgG purified from hybridoma supernatant; also called #2-20 antibody; mouse #2-20 antibody
B4: the binding result in assay [3] is “binds”.
